Assay results taken from patent US20130303393A1.

Biological target: NlpA-80R(scFv)

B1: M18.1 Hum IgG (antibody, V domains shown)
VH: EVQLVESGGGLVQPGGSLRLSCADSGYAFNSSWMNWVRQAPGKGLEWVGRIYPGDGDSNYNGKFEGRAIISADKSSSTAYLQMNSLRAEDTAVYYCARSGLLRYAMDYWGQGTLVTVSS
VL: DIQMTQSPSSLSASVGDRVTVTCRASQGIRNYLNWYQQKPGKAPKFLIYYTSRLLPGVPSRFSGSGSGTDYTLTINSLEQEDIATYYCQQGNTPPWTFGQGTKVEIKR
Q: How did the M (FL1-Height) turn out when B1 was run?
A: 4
